Results taken from US20260201030A1 (EVOPOINT BIOSCIENCES, published 2026).

Columns and labels:
human Claudin18.2 [1] = target: T1, human Claudin18.2 (human, UniProt P56856-2 1-261); test: cell-based ELISA on NUGC4-Claudin18.2 (human) cells
T1 construct: whole, on cells; also called CLDN18.2; HEK293T-Claudin18.2 (human)

mouse Claudin18.2 = target: T2, mouse Claudin18.2 (mouse, UniProt P56857-3 1-264, limits assumed); test: FACS on HEK293T-Claudin18.2 (mouse) cells
T2 construct: whole, on cells; also called HEK293T-Claudin18.2 (mouse)
Description: The mixture was incubated at 4° C. for 0.5 h, and the cells were washed three times with pre-cooled PBS, then resuspended, and assayed on a flow cytometer.

human Claudin18.1 = target: T3, human Claudin18.1 (human, UniProt P56856 1-261); test: FACS on HEK293T-Claudin18.1 (human) cells, antibody 50 µg/mL
T3 construct: whole, on cells; also called CLDN18.1; HEK293T-Claudin18.1 (human)
Description: The specificity of the anti-human Claudin18.2 humanized monoclonal antibodies was determined by flow cytometry (FACS). The experimental procedures were as follows: HEK293T-Claudin18.1 (human) cells were digested, collected by centrifugation, washed three times with pre-cooled PBS, resuspended in 1% BSA (in PBS), and added to a 96-well pointed bottom plate at 3×10⁵ cells/well. Each test antibody with a final concentration of 50 μg/mL was added, and the mixture was incubated at 4° C. for 1 h. The cells were washed three times with pre-cooled PBS, and then 1 μL of a fluorescent secondary antibody (APC: Biolegend-410712 or PE: BioLegend-410708) was added to each well. The mixture was incubated at 4° C. for 0.5 h, and the cells were washed three times with pre-cooled PBS, then resuspended, and assayed on a flow cytometer. For reference, anti-human Claudin18.1 positive control antibodies (positive control antibody-1 and positive control antibody-2) were included in the experiment.

human Claudin18.2 [2] = target: T1, human Claudin18.2; test: cell-based or functional assay
human Claudin18.2 [3] = target: T1, human Claudin18.2; test: cell-based ELISA on L929-Claudin18.2 (human) cells
human Claudin18.2 [4] = target: T1, human Claudin18.2; test: cell-based ELISA on HEK293T-Claudin18.2 (human) cells
Description: The affinity of the anti-human Claudin18.2 murine monoclonal antibodies was evaluated by cell-based ELISA. The experimental procedures were as follows: The day before the experiment, HEK293T-Claudin18.2 (human) cells were plated in a 96-well plate at 5×10⁴ cells/well. On the day of the experiment, the supernatant was removed, the cells in each well were washed once with 300 μL of PBS, and 100 μL of 4% paraformaldehyde was added to each well for fixation at room temperature for 20 min. Paraformaldehyde was then removed, and the cells in each well were washed twice with 300 μL of PBS. 100 μL of 2% BSA (in PBS) was added to each well, and the mixture was blocked at 37° C. for 2 h. After removing the blocking solution, each antibody subjected to gradient dilution (diluted with 2% BSA (in PBS), starting at […], in a 3-fold gradient, for a total of 11 concentration points) was added to the plate at 100 μL/well, and the mixture was incubated at 37° C. for 2 h. The supernatant was removed, and the cells in each well were washed three times with 300 μL of PBST. […] The reaction was stopped by adding 50 μL of 2 N HCl to each well, and OD_{450 nm} values were read on a microplate reader (manufacturer: MD, model: SpectraMax). […]
The affinity of the anti-human Claudin18.2 humanized monoclonal antibodies was determined by cell-based ELISA. […]

human Claudin18.2 [5] = target: T1, human Claudin18.2; test: cell-based ELISA on NUGC4 cells (endogenous human Claudin18.2)
human Claudin18.2 [6] = target: T1, human Claudin18.2; test: FACS on HEK293T-Claudin18.2 (human) cells
Description: (§1) The affinity of the anti-human Claudin18.2 humanized antibodies was detected by flow cytometry. The experimental procedures were as follows: The adherent cultured HEK293T-Claudin18.2 (human), NUGC4-Claudin18.2 (human) and NUGC4 cells were digested, collected by centrifugation, and washed three times with pre-cooled PBS. The cells were resuspended in 1% BSA (in PBS) and added to a 96-well pointed bottom plate at 3×10⁵ cells/well, with a volume of 50 μL per well. Each test antibody was diluted with 1% BSA (in PBS) (starting at 100 μg/mL, diluted in a 3-fold gradient, for 10 concentration points). The test antibody subjected to gradient dilution was added to the cells at 50 μL/well, and the mixture was well mixed and incubated at 4° C. for 1 h. The cells were collected by centrifugation, washed three times with pre-cooled PBS, and resuspended in 50 μL of 1% BSA (in PBS). 1 μL of a fluorescent secondary antibody (Biolegend-410712) was added to each well, and the mixture was well mixed and incubated at 4° C. for 0.5 h. The cells were collected by centrifugation, washed three times with pre-cooled PBS, resuspended in 200 μL of PBS, and assayed on a machine.

human Claudin18.2 [7] = target: T1, human Claudin18.2; test: cell-based ELISA (OD450) on NUGC4 cells (endogenous human Claudin18.2)
human Claudin18.2 [8] = target: T1, human Claudin18.2; test: FACS on NUGC4-Claudin18.2 (human) cells
Description: as §1

T2 sequence (P56857 other isoform, or with tags, fused parts or gaps limits assumed): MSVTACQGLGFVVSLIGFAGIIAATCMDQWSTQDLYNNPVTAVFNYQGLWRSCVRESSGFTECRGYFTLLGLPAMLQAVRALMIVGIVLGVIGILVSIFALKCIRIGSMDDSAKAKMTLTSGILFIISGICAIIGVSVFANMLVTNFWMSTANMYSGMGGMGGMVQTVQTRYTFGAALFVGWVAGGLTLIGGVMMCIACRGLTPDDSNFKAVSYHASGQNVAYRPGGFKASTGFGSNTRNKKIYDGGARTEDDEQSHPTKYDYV

B1: 25C7A5-HZ1 (antibody, human IgG1, kappa)
heavy: not shown
light: EIVLTQSPATLSLSPGERATLSCKASENVKTYVSWYQQKPGQSPRLLIYEASNRYTGVPARFSGSGSATDFTLTISSLEPEDFAVYFCGQTYSFPPTFGQGTKVEIKRTVAAPSVFIFPPSDEQLKSGTASVVCLLNNFYPREAKVQWKVDNALQSGNSQESVTEQDSKDSTYSLSSTLTLSKADYEKHKVYACEVTHQGLSSPVTKSFNRGEC
notes: Humanized IgG1/kappa
EC50 (human Claudin18.2 [1]): 0.108 mg/L
EC50 (mouse Claudin18.2): 0.941 mg/L
Positive rate (%) (human Claudin18.1): 0.54%
ADCC activity EC50 (Jurkat-NFAT-CD16a luciferase reporter, HEK293T-Claudin18.2 (human) target cells) (human Claudin18.2 [2]): 0.0465 mg/L
CDC activity EC50 (guinea pig serum killing, CCK8, HEK293T-Claudin18.2 (human) cells) (human Claudin18.2 [2]): 3.14 mg/L
EC50 (human Claudin18.2 [3]): 0.0134 mg/L
EC50 (human Claudin18.2 [4]): 0.0112 mg/L
EC50 (human Claudin18.2 [5]): 0.101 mg/L
EC50 (human Claudin18.2 [6]): 0.292 mg/L
Maximum signal value (human Claudin18.2 [6]): 114000
Maximum signal value (human Claudin18.2 [7]): 0.304
EC50 (human Claudin18.2 [8]): 3.19 mg/L
